For series [1], the target named is soluble αβ-tubulin heterodimer purified from bovine brain (bovine) (UniProt Q6B856).
Series [2] has the same target. Description: SEC.
In series [3] the target is GMPCPP-stabilized microtubules (unlabelled, polymerized bovine brain tubulin) (bovine, UniProt Q6B856 1-445). Description: co-sedimentation.
The target in series [4] is soluble αβ-tubulin heterodimer purified from bovine brain (bovine) (UniProt Q6B856). Description: AUC.
The series “AUC” deals with the molecule itself. Description: AUC.

B1: full-length S. pombe Cls1p (residues 1-1462) (natural protein, UniProt O42874 1-1462, looked up)
chain: MADKDAQDFLKFLKSNASTDEKTRCLDTLRSFFNKNNIPNADLGLFVECFRLALTTVNPLLLRSSVACFETFLRRLRAQYPTWLKFRVPMLKNLVIDHIASRDLQKRVLNILIDLWHFNPSEIEKSLIHLSTTSKSAETRIQCFKWFVLAHNAHLSFDVKSLRPALYINLENANPSVREEAKEVLLLIYKNLSTSAKMQFITDVETTSGLRREILQSLVEELSLISSSSEVIIVQNSASSFQPAPFMTAVATLYPGVELENVKPLLANFSKQLEQDSASMLPAFEGRETEQNWSVRQDSVLRLRQYLRGNACIDYLPELLSVLKTLLPGILLALLSLRTTLSSSAIQLIKEMAIILKSNIDPFLELILPNLLKVCSVTKKLASQAANVTFAAILVNCGVLSRNLSFISLAAHDTNAQLRVFSSNWIFMLISLSPELKNLASLQTNLKAFEKLICRGLADSNSQVREVYRKSFWKLSEYFPSVQEELTNTLEPSVLKQLHLANPNRQAASFNFSGPKRAPIRPLSNLRSFSKSQKEETSSNSSNSSGTRRLGLPQRATPASRERVLPYTRSQAFHSTSLPPSLPSGHSPSIAIPSKRSVSATIKDESKTFELLKNIQRKYELILSGSSVDLPSAEFLSSNLTDALYSGSSICYSLIFSHSLLDLTFQYVDIASLLSQFLLCVYDPSNVGHSFALASFPYVKSHYDAHKYFPIVFDVLMNISNMAPHVKVFPFNTNQKRLIIHGCLLWLKEISDTKLNQLENKPFFVTDKLRYYSSKILAMTAKTKLTSKNWIPLSGLLFSLRAHDTFMFDGLLDRLNEESRTKLVSSWSKQDAFDYSKSSTHQEHLSKNLPTLNTSSSSNSSQTDLLVPHGKGETKETEMQSPIESKEGLLSKDTHIESPQGTSLEKENEEEGKNPVESNCSEESLDDHNIDQTLVNKKETLAQDSESLLQKNNALNEKGFENQFGLSSSAAKVLNKDTLDHVSGPISNSVSSSFKDFTRTPFKEINGERETGFELTSYVNALSKKDDINVQKTENVDESVGLNAMFMDNVNQDSLNSVDQSSGKDKLLLTSSTPNKPTTFFMPANEEILGSPAKDYDIHDQSYSVHELHSENMRENVGQSSLIYNNRDYMNTPMNDFSLSFSEIKGGILESPVESPMTGTISPIDADESVLHDIPAYESLNKSESNKYQEQAYSTPLHHTLNVLPKNKWILSRMHKMENGSPINVDKNLDDAVAALEAAVKELNDGSVNTKTLKFCIKVCKETPSMLYHSHGLLPAILHYIESNNSAMHISDCLILLHEFLVQGYQGVDMHTYHNIICILIEKAEKCKDEPVILAGIEDNITLIAEIADLQGLYEFTQQRLQSLNTETGEKSAPLLLMLLSAILMRLKDLEFLETKDLLRHVVLKYIDHTNPEIRKATFNVCLAVNTIVNNVDETFSILGGLNEGQRLLFMHYLKMKSDEKN
Molecule B1 showed an MT rescue frequency in TIRF dynamics assay, 6 μM tubulin, Cls1p 20 nM to 140 nM in series [1] of 2.15 rescues/min. Besides, the stoichiometry N (Cls1p molecules per αβ-tubulin dimer) in series [2] stood at 2. Also, in series [3], the “stoichiometry N” value is ~6 polymerized tubulin dimers per Cls1p monomer.

B2: Cls1p-GFP (full-length Cls1p with GFP fused to its C-terminus) (natural protein, S. pombe, UniProt O42874 1-1462, looked up)
chain: B1 chain
Regarding B2, the stoichiometry N (tubulin dimer per complex) in series [4] stood at 1. The “stoichiometry N” value in the series “AUC” came to 2.

B3: Cls1p^604 (residues 1-604) (domain or fragment, S. pombe, UniProt O42874 1-604, looked up)
chain: MADKDAQDFLKFLKSNASTDEKTRCLDTLRSFFNKNNIPNADLGLFVECFRLALTTVNPLLLRSSVACFETFLRRLRAQYPTWLKFRVPMLKNLVIDHIASRDLQKRVLNILIDLWHFNPSEIEKSLIHLSTTSKSAETRIQCFKWFVLAHNAHLSFDVKSLRPALYINLENANPSVREEAKEVLLLIYKNLSTSAKMQFITDVETTSGLRREILQSLVEELSLISSSSEVIIVQNSASSFQPAPFMTAVATLYPGVELENVKPLLANFSKQLEQDSASMLPAFEGRETEQNWSVRQDSVLRLRQYLRGNACIDYLPELLSVLKTLLPGILLALLSLRTTLSSSAIQLIKEMAIILKSNIDPFLELILPNLLKVCSVTKKLASQAANVTFAAILVNCGVLSRNLSFISLAAHDTNAQLRVFSSNWIFMLISLSPELKNLASLQTNLKAFEKLICRGLADSNSQVREVYRKSFWKLSEYFPSVQEELTNTLEPSVLKQLHLANPNRQAASFNFSGPKRAPIRPLSNLRSFSKSQKEETSSNSSNSSGTRRLGLPQRATPASRERVLPYTRSQAFHSTSLPPSLPSGHSPSIAIPSKRSVSATIKD
B3: in series [3], the “stoichiometry N” value is ~3 polymerized tubulin dimers per Cls1 molecule.

The values above are taken from publication PMC3156696 (Developmental cell, 2010).
